Results reported in patent US20250276050A1.
One block for each molecule: values may come before it.

Key:
[1] = target: heterodimeric IL-1RL1/IL-1RAcP on the surface of HEK-Blue IL-33 cells (human) (UniProt Q01638); experiment: cell-based or functional assay
[2] = target: receptor subunits IL4Rα and IL-13Rα1 naturally expressed on HEK-Blue IL-4/IL-13 cells (UniProt P24394); experiment: cell-based or functional assay

SEAP reporter enzyme readout, EC50 (HEK-Blue IL-33 cells) [1]: 10 ng/mL
Molecule: His6-cIL-33-CS (amino acids 110-263 of dog IL-33 with the 3 cysteines replaced by serine, start methionine and N-terminal His6-tag, expressed in E. coli) (from UniProt O97863 110-263) (ligand)

SEAP reporter enzyme readout, EC50 (HEK-Blue IL-4/IL-13 cells) [2]: 2 ng/mL
B1: cIL-13-His6 (canine IL-13 with start methionine and C-terminal His6-tag, expressed in E. coli) (ligand)
chain: MSPSPVTPSPTLKELIEELVNITQNQASLCNGSMVWSVNLTAGMYCAALESLINVSDCSAIQRTQRMLKALCSQKPAAGQISSERSRDTKIEVIQLVKNLLTYVRGVYRHGNFRHHHHHH
